Data as given in patent publication US20060287243A1, “Stable pharmaceutical compositions including motilin-like peptides” (priority 2005, published 2006).
Square brackets hold non-standard residues; d marks the D form.

Tests used:
Format in all cases: physicochemical
[1] = Stability of motilin-like peptide following autoclaving and storage (HPLC, undegraded peptide remaining); settings: 30 μg/ml in 10 mM sodium acetate buffer pH 5.0, Type I glass vials, autoclaved 121° C. 15 minutes, storage 3 months at 55° C. (FIG. 2)
Source text: A further advantage of the pharmaceutical composition of the present invention is its peptide stability when the composition is subjected to elevated temperatures such as the temperature of steam sterilization. Many peptides are inherently unstable and, when subjected to heat, are known to degrade very rapidly, typically in a few minutes or less. In contrast, in compositions of the present invention, the peptide substantially retains its stability (i.e., remains substantially undegraded and retains a substantial percentage of its initial potency), even after the composition is (1) subjected to steam sterilization (for at least 10 minutes and up to 60 minutes at temperatures of approximately 100° C.-128° C. and typically 121° C.), and (2) subsequently stored in a suitable container (described below) at lower temperatures typically encountered by a pharmaceutical composition, such as about 4° C.-5° C. to about 25° C.
The motilin-like peptide of SEQ ID NO.: 1 was dissolved at a concentration of 30 μg/ml in 10 mM sodium acetate buffer, pH 5.0. […] The potency of the peptide following storage at each temperature was measured over time by testing samples after incubation of one week, two weeks, three weeks, one month and three months. Potency was determined by using HPLC to measure the amount of undegraded peptide remaining in each sample. […]

[2] = Stability of lyophilized formulations of motilin-like peptide, reconstituted in water (HPLC); settings: 30 μg/ml in 10 mM citrate buffer, 1% w/v sucrose, pH 6.0, lyophilized, stored in 20 ml vial at 40° C. for several months (FIG. 5)
Description: The motilin-like peptide including SEQ ID NO.: 1 was dissolved at a concentration of 30 μg/ml in 10 mM citrate buffer and 1% w/v of sucrose (bulking agent) at pH 6.0. The composition was lyophilized by standard techniques and stored in a 20 ml vial at 40° C. The potency of the motilin-like peptide was measured at the time intervals indicated in FIG. 5, by reconstituting the composition in water. Potency was determined by using HPLC to measure the amount of undegraded peptide remaining in each sample. […] (Again, it will be appreciated by those skilled in the art that the stability of pharmaceutical compositions at elevated temperatures, such as 40° C. as in FIG. 5, may serve as the basis of prediction of stability for longer periods at more typical storage temperatures, such as approximately 20° C.-25° C. or 4° C.-8° C., for example).

[3] = Storage stability of aqueous buffered composition in Schott Type 1 vials
Source text: Some plastics have also proven to be effective in assisting in the stabilization of the peptide composition. In this regard, preferred plastics are cyclic olefin copolymers, available, for example, from West Pharmaceuticals under the product name CZ resin vials, or from Schott under the product name TopPac vials, or from Alcan packaging under the product name Ticona Topas serum vials. The compositions of the present invention may also be stored in PVC, as well as non-PVC flexible bags. When stored in the above described glass or plastic containers, the above-described storage times at the above-described storage temperatures can be achieved, although for storage periods of at least 18 months, Type I Plus (vapor treated silicon) vials and Type I Plus glass ampules are preferred. […] It will be appreciated by those skilled in the art that the measured stability of pharmaceutical compositions at elevated temperatures, such as 40° C. or higher, may serve as the basis of prediction of stability for longer periods at more typical storage temperatures, such as 20°-25° C. or 4°-8° C., for example. Such “accelerated storage” studies are common in the field of the present invention.

[4] = Long-term storage stability of the aqueous buffered composition; settings: pH between approximately 3 and 9, preferably 4.8-5.2
Description: The aqueous pharmaceutical compositions of the present invention provides benefits previously unknown. The motilin-like peptide of pharmaceutical compositions of the present invention remains stable when stored over a wide range of temperatures for extended periods of time. For example, when stored at room temperature or its preferred lower storage temperature of 4° C.-5° C., substantial stability is maintained for significant periods of time. For example, at a storage temperature of approximately 25° C., the peptide contained in the composition of the present invention remains stable for at least 12 months, and more preferably at least approximately 18 months and, even more preferably, up to and even beyond approximately 24 months, retaining a potency of 90% or more as shown, for example, in FIG. 1. At a storage temperature of 5° C., storage with only marginal degradation (and a potency of at least 90-95%) of up to at least 18 months is regularly observed.
Whether prepared and stored as an aqueous unbuffered solution, an aqueous buffered solution, a ready-to-use or concentrated, or a lyophilized composition that is subsequently reconstituted, the pharmaceutical compositions of the present invention remains potent during storage for extended periods of time. […]

(Me3N)^+Phe-Val-Pro-Ile-Phe-Thr-Tyr-Gly-Glu-Leu-Gln-D-Arg-Leu-Lys-NH2 ({N,N,N‑trimethyl}-FVPIFTYGELQ[dR]LK-NH2) [SEQ ID NO.: 1, synthetic motilin-like peptide receptor agonist]
potency retained (undegraded peptide remaining by HPLC) [1]: greater than 90% | potency retained (undegraded peptide remaining by HPLC) [2]: greater than 90% | stability (maintenance of potency) ([3]; 30 μg/ml, several months at 5° C. to 55° C. (FIG. 4)): demonstrated stability | stability (maintenance of potency) ([3]; approximately 5 μg/ml, several months at 5° C. to 55° C. (FIG. 3)): demonstrated stability | degradation during storage [4]: only minimal degradation
